For one substance, Antibody internalization Maximum MFI, MCF-7 cells, high-content imaging (negative control) and Maximum MFI results are on record in patent US20240148892A1.

Assay [1] concerns the target human full-length B7H3 expressed on MCF-7 cells (human) (UniProt Q5ZPR3). Description: cell-based or functional assay.
For assay [2] the target is unchanged. Nature of the assay: flow cytometry (FACS) on MCF-7 cells expressing human full-length B7H3; negative control. A general note: In flow cytometry, cells or beads pass a laser one at a time.
Assay [3] has as its target cynomolgus monkey B7H3 on transfected FlpinCHO cells (cynomolgus monkey). Description: flow cytometry (FACS) on FlpinCHO cells transfected with cynomolgus monkey B7H3; negative control.

Chain of human full-length B7H3 expressed on MCF-7 cells (human) (Q5ZPR3 29-534 limits assumed): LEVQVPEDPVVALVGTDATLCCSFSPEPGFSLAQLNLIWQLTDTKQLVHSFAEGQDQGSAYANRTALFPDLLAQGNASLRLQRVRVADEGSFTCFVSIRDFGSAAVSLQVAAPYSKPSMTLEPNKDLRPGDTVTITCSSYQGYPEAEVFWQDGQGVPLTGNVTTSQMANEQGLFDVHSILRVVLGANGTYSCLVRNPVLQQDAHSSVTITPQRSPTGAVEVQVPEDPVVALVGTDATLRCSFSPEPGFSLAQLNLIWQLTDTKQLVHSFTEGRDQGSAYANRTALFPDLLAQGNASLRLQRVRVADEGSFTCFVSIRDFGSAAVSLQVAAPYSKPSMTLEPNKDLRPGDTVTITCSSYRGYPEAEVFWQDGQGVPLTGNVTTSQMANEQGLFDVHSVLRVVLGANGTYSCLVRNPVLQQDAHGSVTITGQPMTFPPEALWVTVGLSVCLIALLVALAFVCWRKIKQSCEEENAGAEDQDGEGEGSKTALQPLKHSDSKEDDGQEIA

With hIgG1 isotype (antibody), the Antibody internalization Maximum MFI, MCF-7 cells, high-content imaging (negative control) in assay [1] was found to be 21 MFI. The Maximum MFI in assay [2] worked out at 47.8 MFI; in assay [3], 6.67 MFI.
